T1: human GITR-Fc fusion protein (human, UniProt Q9Y5U5 26-162)
T1 construct: extracellular domain; also called hGITR-Fc; recombinant human GITR-Fc; not shown: Fc part
T1 sequence (looked up): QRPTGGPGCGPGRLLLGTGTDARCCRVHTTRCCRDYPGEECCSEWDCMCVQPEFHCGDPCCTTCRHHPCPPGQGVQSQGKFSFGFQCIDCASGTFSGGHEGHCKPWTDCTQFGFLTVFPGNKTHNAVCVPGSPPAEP

T2: human GITR expressed on cells (human, UniProt Q9Y5U5 26-241)
T2 sequence (looked up): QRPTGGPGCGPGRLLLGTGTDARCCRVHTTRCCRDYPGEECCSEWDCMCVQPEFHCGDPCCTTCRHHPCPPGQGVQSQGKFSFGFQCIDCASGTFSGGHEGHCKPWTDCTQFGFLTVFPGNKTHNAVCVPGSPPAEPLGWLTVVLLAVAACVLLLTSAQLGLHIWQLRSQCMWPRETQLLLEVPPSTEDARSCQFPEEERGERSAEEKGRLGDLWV

B1: anti-GITR antibody clone 2155 (murine) (antibody, V domains shown)
VH: EVKLVESGGGLVKPGGSLKLSCGASGFTISSYAMSWVRQSPEKRLEWVAIISTGGSTYYPDSVRGRFTISRDNARNSLYLQMSSLRSEDTAMYYCARVGGYYDSMDHWGQGTSVTVSS
VL: not shown
notes: Murine hybridoma antibody
B2: anti-GITR antibody clone 1718 (antibody, V domains shown)
VH: QVQVQQSGPELVKPGASVRISCKASDYTFTNYYIHWVRQRPGQGLEWLGWIYPGKGYTNYNEKFKGKATLTADKSSSTAYMQFSSLTSEDSAVYFCASGYGNYYFPYWGQGTLVTVSA
VL: IQMTQSSSYLSVSLGGRVTITCKASDHIKNWLAWYQQKPGNVPRLLMSAATSLETGFPSRFSGSGSGKDFTLTITSLQTEDVATYYCQQYWSTPWTFGGGTKLEIK
notes: Murine hybridoma antibody; also called 1718-GITR2; 1718 GITR-2
B3: anti-GITR antibody clone 1649 (antibody, V domains shown)
VH: EVQLQQSGTVLAGPGTSVKMSCEASGYSFTTYWIHWIKQRPGQGLEWIGAIYPGNSDAGYNQKFKGKAKLTAVTSASTAYMELSSLTNEDSAVYYCTRSSTYPHFDYWGQGTTLTVSS
VL: DILLTQSPAILSVSPGERVSFSCRASQSIGTSIHWYQQRTNDSPRLLIKYASESISGIPSRFSGSGSGTDFTLNINSVESEDIADYYCQQTNNWPLTFGAGTKLELK
notes: Murine hybridoma antibody; also called 1649-GITR2; 1649 GITR-2

How the values were obtained:
[1] = molecular target: T3, cynomolgus monkey GITR-Fc (cynomolgus monkey); assay: SPR (BIAcore 2000), mAb captured on anti-mouse Fc, antigen injected
T3 construct: extracellular domain; also called cGITR-FC; cGITR
Experimental: (§1) The binding kinetics of several anti-GITR antibodies to recombinant human GITR (hGITR) and cynomolgus monkey GITR (cGITR) were determined by surface plasmon resonance assay using a BIAcore 2000 (BIAcore Inc., […].). Briefly, a CM5 BIAcore biosensor chip was docked into the instrument and activated with 250 μL of 1:1 NHS/EDC at room temperature. A rabbit anti-mouse Fc IgG1 mAb (BIAcore #BR-1005-14) (13.5 μg/mL in 0.05M acetate buffer, pH 5) was immobilized on the activated chips in Flow cell 1. The immobilization was carried out at a flow rate of 5 μL/min. The chip was then blocked by injection of 55 μL of ethanolamine-HCl, pH 8.5, followed by five washes with 50 mM NaOH, 1M NaCl. To measure the binding of anti-GITR mabs to the human GITR protein or cyno GITR protein, antibodies were used at 2 μg/mL in BIAcore running buffer (HBS-EP). Antigens (human GITR or cyno GITR) were injected from 3 to 1000 nM. Following completion of the injection phase, dissociation was monitored in a BIAcore running buffer at the same flow rate for 360 sec. The surface was regenerated between injections using 30 μL of 50 mM NaOH-1 M NaCl. Individual sensorgrams were analyzed using […].

[2] = molecular target: T1, human GITR-Fc fusion protein; assay: as above
Experimental: as §1

[3] = molecular target: T4, cynomolgus monkey GITR on PBMCs (cynomolgus monkey); assay: FACS, Alexa488-labeled antibody on PHA-stimulated cynomolgus monkey PBMCs
T4 construct: whole, on cells; also called cynoGITR-expressing PBMCs
Experimental: (§2) Specifically, human or cynomolgus monkey peripheral blood mononuclear cells were isloated and diluted to 2×10^6/ml in RPMI-1640 medium containing 10% FBS. The cells were then stimulated with 5 ug/ml phytohaemagglutinin (PHA) for 72 hours in 6 well plates. […] The cells were then washed 2 times with FACS stain buffer (Becton Dickinson) and then co-stained with 50 ul of CD4-APC for 20 minutes in the dark at 4° C. The cells were then washed again 2 times with FACS stain buffer before being resuspended in 150 μL of FACS stain buffer (Becton Dickinson) and analyzed using a FACS Calibur instrument. from which binding curves were generated. Equilibrium dissociation constants (KD) for each antibody were determined from the binding curves.

[4] = molecular target: T2, human GITR expressed on cells; assay: cell-based or functional assay
[5] = molecular target: T3, cynomolgus monkey GITR-Fc; assay: SPR; KD on cGITR-Fc over KD on hGITR-Fc
Experimental: as §1

[6] = molecular target: T2, human GITR expressed on cells; assay: FACS, Alexa488-labeled antibody on PHA-stimulated human PBMCs
Experimental: as §2

[7] = molecular target: T1, human GITR-Fc fusion protein; assay: competition ELISA, GITRL coated, GITR-Fc 0.25 µg/mL pre-incubated with antibody
Experimental: The ability of anti-GITR antibodies to inhibit the binding of human GITRL to hGITR was assessed using a competition ELISA. Ninety-six well plates were coated with GITR-Ligand protein at 0.5 μg/well at 4° C., overnight. Wells were washed with washing buffer (PBS pH 7.4+0.05 Tween 20) and blocked with 200 μL of blocking buffer (PBS pH 7.4+0.05% Tween 20+1% BSA) for 1 hour at room temperature. Wells were then washed two times with washing buffer and exposed to 100 μL of pre-incubated mixtures of GITR-Fc at 0.25 μg/mL plus anti-GITR antibody in 2-fold serial dilutions starting at 10 μg/ml up to 12 dilutions for 1 hour at room temperature with agitation. Plates were washed four times with washing buffer and GITR-Ligand-bound recombinant human GITR-Fc was detected with the use of peroxidase-conjugated goat anti-human IgG-Fc (Sigma), followed by incubation with the TMB substrate (Interchim)
All antibodies generated using the methods disclosed herein were able to antagonize the binding of GITRL to GITR more potently than the prior art MAB689 antibody.

[8] = molecular target: T2, human GITR expressed on cells; assay: Meso Scale assay, Sulfo-conjugated antibody on coated HEK293-Trex-hGITR cells
Experimental: The binding kinetics of anti-GITR antibodies to hGITR expressed on the surface of HEK293 cells were determined by Meso Scale assay. HEK293-Trex-hGITR cells (#2404) were coated at 25000 cells/well on a 96-well High Bind plate (MSD L15XB-3) for 2 hours at room temperature. Wells were washed 2 times with 150 μl/well of PBS and blocked with 150 μl/well of blocking solution for 30 min at room temperature. Following two washes with 150 μl/well of PBS, 25 μL/well of Sulfo-conjugated antibodies were added in 2-fold serial dilutions starting at 100 μg/ml up to 12 dilutions in assay diluent and incubated for 45 min at room temperature followed by two washes with PBS. The antibody binding was evaluated by adding 150 μl/well 1× Read buffer T without surfactant and read using the Mesoscale instrument.

Binder	Kd [1]	koff [1]	Kd [2]	koff [2]	Kd [3]	IC50 of dose-dependent inhibition of NFkB signal transduction (luciferase reporter) [4]	Ratio cKD/hKD [5]	Kd [6]	IC50 [7]	Kd [8]
B1	2.27 nM	0.00123 s⁻¹	0.99 nM	0.000508 s⁻¹	0.353 nM	0.15 nM	2.3	0.476 nM	0.96 nM	0.35 nM
B2	3.35 nM	0.000345 s⁻¹	2.57 nM	0.00038 s⁻¹	–	–	1.3	4.13 nM	1.02 nM	0.857 nM
B3	9.68 nM	0.00021 s⁻¹	1.84 nM	7.44e-05 s⁻¹	–	–	5.3	–	3.76 nM	5.38 nM

From patent US20130108641A1 (Sanofi, published 2013)
